Reference: patent US20250388664A1 (BIOARCTIC, published 2025)
Where a chain is given by its changes, count along the chain named. Names may count otherwise.

T1: truncated cTfR1 of SEQ ID NO:123 (cynomolgus monkey, UniProt Q5RDH6 122-760 (Pongo abelii entry))
T1 construct: also called cynomolgus TfR1
T1 chain: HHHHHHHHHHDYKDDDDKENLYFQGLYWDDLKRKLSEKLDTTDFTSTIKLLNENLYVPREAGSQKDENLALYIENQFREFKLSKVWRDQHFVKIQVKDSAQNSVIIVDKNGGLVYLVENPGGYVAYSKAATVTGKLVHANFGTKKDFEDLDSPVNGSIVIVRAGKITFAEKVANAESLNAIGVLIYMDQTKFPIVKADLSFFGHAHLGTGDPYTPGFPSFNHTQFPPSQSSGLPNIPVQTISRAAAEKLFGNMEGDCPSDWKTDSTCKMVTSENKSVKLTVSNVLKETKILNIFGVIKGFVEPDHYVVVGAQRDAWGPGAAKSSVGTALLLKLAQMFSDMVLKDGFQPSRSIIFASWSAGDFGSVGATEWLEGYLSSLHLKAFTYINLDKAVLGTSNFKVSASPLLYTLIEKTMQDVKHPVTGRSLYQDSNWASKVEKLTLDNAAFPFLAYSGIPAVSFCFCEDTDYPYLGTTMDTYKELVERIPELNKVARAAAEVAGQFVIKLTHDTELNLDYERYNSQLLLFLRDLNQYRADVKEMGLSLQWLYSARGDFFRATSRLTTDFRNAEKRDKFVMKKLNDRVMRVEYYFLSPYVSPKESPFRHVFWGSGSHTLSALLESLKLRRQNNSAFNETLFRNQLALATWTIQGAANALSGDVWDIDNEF

B1: h26D3 variant HC2 Fab (Fab, V domains shown)
VH: EVQLVQSGAEVKKPGSSVKVSCKASGYIFTDANMDWVRQAPGQGLEWIGDINPDYDTTSYNEKFKGRATLTVDKSTSTAYMELSSLRSEDTAVYYCARGGYSGSSYYHPMDYWGQGTLVTVSS
VL: DIQMTQSPSSVSASVGDRVTITCKSSQSLLYSTNQKNYLAWYQQKPGKAPKLLIYWASTRESGVPSRFSGSGSGTDFTLTISSLQPEDFATYYCQQYFIYPRTFGQGTKVEIK
notes: Single-mutant His-tagged Fab; also called Y32A
B2: h26D3 variant HC3 Fab (Fab, V domains shown)
VH: B1 VH with A32Y, D35A
VL: B1 VL
notes: Single-mutant His-tagged Fab; also called D35A
B3: h26D3 variant LC1 Fab (Fab, V domains shown)
VH: B1 VH with A32Y
VL: B1 VL with Y31A
notes: Single-mutant His-tagged Fab; also called Y31A
B4: h26D3 variant LC6 Fab (Fab, V domains shown)
VH: B1 VH with A32Y
VL: B1 VL with Y100A
notes: Single-mutant His-tagged Fab; also called Y100A
B5: h26D3 variant HC11 Fab (Fab, V domains shown)
VH: B1 VH with A32Y, Y107A
VL: B1 VL
notes: Single-mutant His-tagged Fab; also called Y107A
B6: h26D3 variant HC5 Fab (Fab, V domains shown)
VH: B1 VH with A32Y, D54A
VL: B1 VL
notes: Single-mutant His-tagged Fab; also called D54A
B7: h26D3 variant HC8 Fab (Fab, V domains shown)
VH: B1 VH with A32Y, Y60A
VL: B1 VL
notes: Single-mutant His-tagged Fab; also called Y60A
B8: h26D3 variant HC4 Fab (Fab, V domains shown)
VH: B1 VH with A32Y, D50A
VL: B1 VL
notes: Single-mutant His-tagged Fab; also called D50A
B9: h26D3 variant HC10 Fab (Fab, V domains shown)
VH: B1 VH with A32Y, Y106A
VL: B1 VL
notes: Single-mutant His-tagged Fab; also called Y106A
B10: h26D3 variant HC6 Fab (Fab, V domains shown)
VH: B1 VH with A32Y, Y55A
VL: B1 VL
notes: Single-mutant His-tagged Fab; also called Y55A
B11: h26D3 HC6 DS V11R T120K (scFv)
scFv: HHHHHHGGGGSGGGGSGGGGSGGGGSDIQMTQSPSSVSASVGDRVTITCKSSQSLLYSTNQKNYLAWYQQKPGKAPKLLIYWASTRESGVPSRFSGSGSGTDFTLTISSLQPEDFATYYCQQYFIYPRTFGCGTKVEIKGGGGSGGGGSGGGGSGGGGSEVQLVQSGAERKKPGSSVKVSCKASGYIFTDYNMDWVRQAPGQCLEWIGDINPDADTTSYNEKFKGRATLTVDKSTSTAYMELSSLRSEDTAVYYCARGGYSGSSYYHPMDYWGQGTLVKVSS
notes: also called h26D3 DS V11R T120K
B12: h26D3 HC6 DS V11R T91A (scFv)
scFv: B11 scFv with T250A, K279T
notes: also called h26D3 DS V11R T91A
B13: h26D3 HC6 DS T91S T120K (scFv)
scFv: B11 scFv with R170V, T250S
notes: also called h26D3 DS T91S T120K
B14: h26D3 HC6 DS T120K (scFv)
scFv: B11 scFv with R170V
notes: also called h26D3 DS T120K
B15: h26D3 HC6 DS T91S S122K (scFv)
scFv: B11 scFv with R170V, T250S, K279T, S281K
notes: also called h26D3 DS T91S S122K
B16: h26D3 HC6 DS S122K (scFv)
scFv: B11 scFv with R170V, K279T, S281K
notes: also called h26D3 DS S122K
B17: h26D3-HC6_DS, VL-first (scFv)
scFv: DIQMTQSPSSVSASVGDRVTITCKSSQSLLYSTNQKNYLAWYQQKPGKAPKLLIYWASTRESGVPSRFSGSGSGTDFTLTISSLQPEDFATYYCQQYFIYPRTFGCGTKVEIKGGGGSGGGGSGGGGSGGGGSEVQLVQSGAEVKKPGSSVKVSCKASGYIFTDYNMDWVRQAPGQCLEWIGDINPDADTTSYNEKFKGRATLTVDKSTSTAYMELSSLRSEDTAVYYCARGGYSGSSYYHPMDYWGQGTLVTVSS
B18: h26D3 HC6 DS T91A (scFv)
scFv: B11 scFv with R170V, T250A, K279T
notes: also called h26D3 DS T91A
B19: h26D3 HC6 DS S16E (scFv)
scFv: B11 scFv with R170V, S175E, K279T
notes: also called h26D3 DS S16E
B20: h26D3 HC6 DS L118S (scFv)
scFv: B11 scFv with R170V, L277S, K279T
notes: also called h26D3 DS L118S
B21: h26D3 HC6 DS S16E L118S (scFv)
scFv: B11 scFv with R170V, S175E, L277S, K279T
notes: also called h26D3 DS S16E L118S
B22: h26D3 HC6 DS V11R (scFv)
scFv: B11 scFv with K279T
notes: also called h26D3 DS V11R

Molecular target: T1, truncated cTfR1 of SEQ ID NO:123
Experiment: SPR, TfR1 amine-coupled, Fab injected, 1:1 fit
Experimental: (§1) Binding of the purified Fabs to human and cynomolgus TfR1 was evaluated using either SPR (FIG. 44) or indirect ELISA (FIG. 45). For SPR, a Biacore 8K instrument (Cytiva) was used. […] The Fabs were injected over the chip using a 2-fold dilution series in four steps starting at 100 nM. The interaction was measured using the single cycle kinetics method with a contact time of 120 s at a flow rate of 30 μl/min followed by a dissociation time of 1000 s. Regeneration of the surface between cycles was done by injecting 3M MgCl₂. The binding data was fitted to a 1:1 interaction model. The Fabs were diluted in HBS-EP+ (Cytiva, #BR100669). Experiments were performed at 25° C.

In order of rising Kd:
1. B5  2.7 nM
2. B9  4.6 nM
3. B8  8 nM
4. B4  9.4 nM
5. B1  12 nM
6. B7  19 nM
7. B6  39 nM
8. B3  70 nM
9. B10  164 nM
10. B2  168 nM

molecular target: T2, truncated hTfR1 of SEQ ID NO:122 (human, UniProt P02786 122-760); experiment: SPR, TfR1 amine-coupled, Fab injected, 1:1 fit
T2 construct: also called human TfR1; Human TfR1
T2 sequence (P02786 other isoform, or with tags, fused parts or gaps limits assumed): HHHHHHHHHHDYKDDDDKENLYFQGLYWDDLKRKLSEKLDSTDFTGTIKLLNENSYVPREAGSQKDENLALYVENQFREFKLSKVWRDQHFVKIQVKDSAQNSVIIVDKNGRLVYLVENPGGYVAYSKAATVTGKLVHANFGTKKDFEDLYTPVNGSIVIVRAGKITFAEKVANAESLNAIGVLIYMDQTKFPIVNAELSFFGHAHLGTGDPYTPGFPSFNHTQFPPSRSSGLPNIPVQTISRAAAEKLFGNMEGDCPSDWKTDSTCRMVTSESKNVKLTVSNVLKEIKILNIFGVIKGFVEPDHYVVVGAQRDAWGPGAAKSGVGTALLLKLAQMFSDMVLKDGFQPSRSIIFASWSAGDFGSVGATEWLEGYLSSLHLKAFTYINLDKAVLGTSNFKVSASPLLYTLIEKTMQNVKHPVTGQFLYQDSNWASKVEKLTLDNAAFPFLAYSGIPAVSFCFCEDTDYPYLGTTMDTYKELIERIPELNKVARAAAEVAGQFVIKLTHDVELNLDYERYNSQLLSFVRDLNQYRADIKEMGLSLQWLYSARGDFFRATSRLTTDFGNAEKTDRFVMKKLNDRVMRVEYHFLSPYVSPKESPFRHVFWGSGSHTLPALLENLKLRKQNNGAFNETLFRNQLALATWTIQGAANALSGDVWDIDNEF
Experimental: as §1

In order of rising Kd:
1. B8  5.1 nM
2. B4  8.5 nM
3. B1  8.7 nM
4. B9  9.2 nM
5. B7  10 nM
6. B3  14 nM
7. B2  16 nM
8. B6  20 nM
9. B10  156 nM
10. B5  388 nM

molecular target: T2, truncated hTfR1 of SEQ ID NO:122; experiment: SPR follow-up, 4 replicates, FLAG-captured hTfR1, scFv injected
Experimental: (§2) The interaction was measured using the single cycle kinetics method with a contact time of 120 s at a flow rate of 30 μl/min followed by a dissociation time of 600 s. Regeneration of the surface between cycles was done by injecting 10 mM glycine-HCl, pH 1.7. The binding data was fitted to a 1:1 interaction model. The scFv variants were diluted in HBS-EP+ (Cytiva. #BR100669). Experiments were performed at 25° C.
The selected molecules were produced as described above.

In order of falling Kd:
1. B14  71.3 nM
2. B15  69.5 nM
3. B17  66.2 nM
4. B16  62.6 nM
5. B12  58.7 nM
6. B13  55.5 nM
7. B11  48.6 nM

In order of falling koff:
1. B16  0.00482 s⁻¹
2. B14  0.00478 s⁻¹
3. B13  0.00465 s⁻¹
4. B15  0.00463 s⁻¹
5. B11  0.00449 s⁻¹
6. B17  0.00439 s⁻¹
7. B12  0.00419 s⁻¹

In order of falling kon:
1. B11  95700 M⁻¹ s⁻¹
2. B13  87200 M⁻¹ s⁻¹
3. B16  85800 M⁻¹ s⁻¹
4. B12  74900 M⁻¹ s⁻¹
5. B14  67300 M⁻¹ s⁻¹
6. B17  67100 M⁻¹ s⁻¹
7. B15  67000 M⁻¹ s⁻¹

Molecular target: T1, truncated cTfR1 of SEQ ID NO:123
Experiment: SPR, FLAG-captured TfR1, scFv injected, 1:1 fit
Experimental: as §2

In order of rising Kd:
1. B16  170 nM
2. B14  197 nM
3. B11  201 nM
4. B12  206 nM
5. B15  221 nM
6. B22  222 nM
7. B18  240 nM
8. B20  243 nM
9. B13  245 nM
10. B17  246 nM
11. B21  261 nM
12. B19  277 nM

In order of falling koff:
1. B11  0.0124 s⁻¹
2. B19  0.0121 s⁻¹
3. B12  0.012 s⁻¹
4. B13  0.0115 s⁻¹
5. B17  0.0114 s⁻¹
6. B14  0.0113 s⁻¹
7. B22  0.0113 s⁻¹
8. B18  0.0111 s⁻¹
9. B21  0.0109 s⁻¹
10. B15  0.0108 s⁻¹
11. B20  0.0107 s⁻¹
12. B16  0.0103 s⁻¹

In order of rising kon:
1. B21  41700 M⁻¹ s⁻¹
2. B19  43800 M⁻¹ s⁻¹
3. B20  44000 M⁻¹ s⁻¹
4. B18  46200 M⁻¹ s⁻¹
5. B13  46700 M⁻¹ s⁻¹
6. B17  47600 M⁻¹ s⁻¹
7. B15  48600 M⁻¹ s⁻¹
8. B22  51500 M⁻¹ s⁻¹
9. B14  57400 M⁻¹ s⁻¹
10. B12  58100 M⁻¹ s⁻¹
11. B11  61300 M⁻¹ s⁻¹
12. B16  61500 M⁻¹ s⁻¹

molecular target: T2, truncated hTfR1 of SEQ ID NO:122; experiment: SPR, FLAG-captured TfR1, scFv injected, 1:1 fit
Experimental: as §2

In order of falling Kd:
1. B19  68.9 nM
2. B17  68.9 nM
3. B21  67.1 nM
4. B13  66.2 nM
5. B12  61.3 nM
6. B11  60.2 nM
7. B20  60 nM
8. B18  59.7 nM
9. B14  59.3 nM
10. B22  54 nM
11. B16  53.7 nM
12. B15  50.5 nM

In order of falling koff:
1. B22  0.00465 s⁻¹
2. B12  0.00458 s⁻¹
3. B11  0.00441 s⁻¹
4. B17  0.00434 s⁻¹
5. B14  0.00429 s⁻¹
6. B13  0.00409 s⁻¹
7. B16  0.00407 s⁻¹
8. B19  0.00397 s⁻¹
9. B20  0.00393 s⁻¹
10. B18  0.00388 s⁻¹
11. B21  0.00387 s⁻¹
12. B15  0.0038 s⁻¹

In order of falling kon:
1. B22  90400 M⁻¹ s⁻¹
2. B16  76400 M⁻¹ s⁻¹
3. B15  76200 M⁻¹ s⁻¹
4. B12  76100 M⁻¹ s⁻¹
5. B14  75100 M⁻¹ s⁻¹
6. B11  73300 M⁻¹ s⁻¹
7. B20  66200 M⁻¹ s⁻¹
8. B18  65000 M⁻¹ s⁻¹
9. B17  63500 M⁻¹ s⁻¹
10. B13  61900 M⁻¹ s⁻¹
11. B21  57800 M⁻¹ s⁻¹
12. B19  57700 M⁻¹ s⁻¹
